Reference: paper PMC12805836
Several values for one entry are separate records, joined by “and”; a condition that tells them apart may be missing. Equal values may be shown once.

What was measured:
[1] = molecular target: actinorhodopsin (ActR, ActRL06) from Nanopelagicus ca., produced in E. coli (Nanopelagicus ca.); assay: SEC; analytical size-exclusion chromatography of ActR at low pH
[2] = molecular target: actinorhodopsin (ActR, ActRL06) from Nanopelagicus ca., produced in E. coli (Nanopelagicus ca.); assay: SEC; analytical size-exclusion chromatography of ActR at the neutral pH of the scramblase assays
[3] = molecular target: actinorhodopsin (ActR, ActRL06) from Nanopelagicus ca., produced in E. coli (Nanopelagicus ca.); assay: negative stain electron microscopy; ActR from E. coli, purified through the metal affinity step, in elution buffer with DDM, pH 7.4, 8-240 ug/mL on grids, 2% uranyl acetate; preliminary single particle analysis

stoichiometry N [1]: 3
stoichiometry N [2]: 5 and 3
stoichiometry N [3]: 5
Substance: actinorhodopsin (ActR, ActRL06) from Nanopelagicus ca., produced in E. coli (natural protein)
